The assay deals with LDL FC uptake by fibroblast monolayers. Description: Effects of metabolic inhibitors on uptake of 3H-cholesterol from LDL (Example 1). To be noted: cells pretreated with proteinase K; 4 experiments.

B1: proteinase K: proteinase K pretreatment of cells (protein, UniProt P06873 106-384, looked up)
Proteinase K: AAQTNAPWGLARISSTSPGTSTYYYDESAGQGSCVYVIDTGIEASHPEFEGRAQMVKTYYYSSRDGNGHGTHCAGTVGSRTYGVAKKTQLFGVKVLDDNGSGQYSTIIAGMDFVASDKNNRNCPKGVVASLSLGGGYSSSVNSAAARLQSSGVMVAVAAGNNNADARNYSPASEPSVCTVGASDRYDRRSSFSNYGSVLDIFGPGTSILSTWIGGSTRSISGTSMATPHVAGLAAYLMTLGKTTAASACRYIADTANKGDLSNIPFGTVNLLAYNNYQA
Take B1: the “inhibition of uptake of 3H-FC LDL label” value is on record as 7±6%.

The values are drawn from patent publication US6261760A, “Regulation of the cell cycle by sterols” (priority 1999, dated 2001).
